This note sets out measurements from patent US20220175921A1 (Bristol-Myers Squibb, published 2022).

Experiment [1] concerns the target T1, human GITR, membrane bound (on activated human T cells or on 3A9-hGITR cells) (human, UniProt Q9Y5U5 26-241).
T1 construct: also called huGITR; TNFRSF18
T1 sequence: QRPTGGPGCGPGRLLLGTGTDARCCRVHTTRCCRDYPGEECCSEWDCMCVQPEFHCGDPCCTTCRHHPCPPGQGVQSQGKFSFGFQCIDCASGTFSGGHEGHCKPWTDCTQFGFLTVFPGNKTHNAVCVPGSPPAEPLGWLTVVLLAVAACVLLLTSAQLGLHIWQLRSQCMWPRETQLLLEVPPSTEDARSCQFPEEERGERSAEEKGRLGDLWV
Put plainly: FACS on activated human T cells. How it is done:
(§1) Peripheral Blood Mononuclear Cells (PBMCs) isolated from human or cynomolgus monkey were activated with plate-coated anti-CD3 antibody (Clone: UCHT1 for human T cell activation; Clone: SP34 for cynomolgus T cell activation; both from BD Biosciences) and soluble anti-CD28 antibody (Clone:CD28.2 for both human and cynomolgus monkey, BD Biosciences) for 4 days (human)/or 5 days (cynomolgus monkey). The cells were tested for GITR mAb binding in a fluorescence-activated cell sorting (FACS)-based assay using a phycoerythrin (PE)-conjugated anti-human IgG antibody (Jackson ImmunoResearch). The samples were analyzed on a BD FACS Canto Flow Cytometer.

Experiment [2] deals with T2, cynomolgus GITR, membrane bound (on activated cynomolgus T cells) (cynomolgus monkey, UniProt Q9Y5U5 26-241 (human entry)).
T2 construct: also called cyno GITR
T2 chain: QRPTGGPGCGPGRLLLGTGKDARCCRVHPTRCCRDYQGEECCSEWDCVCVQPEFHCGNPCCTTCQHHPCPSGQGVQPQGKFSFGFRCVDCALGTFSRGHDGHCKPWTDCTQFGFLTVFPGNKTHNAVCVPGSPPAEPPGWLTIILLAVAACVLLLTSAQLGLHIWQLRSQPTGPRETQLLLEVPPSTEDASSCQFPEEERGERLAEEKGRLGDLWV
The experiment can be described thus: FACS on activated cynomolgus T cells. How it is done:
as §1

Experiment [3] has as its target T3, recombinant human GITR/Fc (rHGITR/Fc, R&D systems CAT #689-GR) (human, UniProt Q9Y5U5 26-161, limits assumed).
T3 construct: Bought; also called soluble GITR
T3 chain: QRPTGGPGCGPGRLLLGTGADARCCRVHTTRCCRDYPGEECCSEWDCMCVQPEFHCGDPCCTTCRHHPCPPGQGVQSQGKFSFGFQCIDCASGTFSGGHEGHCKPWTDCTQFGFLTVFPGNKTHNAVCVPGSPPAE
Put plainly: SPR; mAb captured (anti-kappa), rHGITR/Fc analyte. The method, then:
Binding of anti-GITR antibodies to soluble GITR was determined by Biacore. […] The capture concentration of the mAb/volume was 2-40 μg/mL (5 μL at 10 μL/min). The antigen association time was 5 minutes at 15 μL/min, the antigen dissociation time was 6 minutes, and regeneration was performed with 50 mM HCl/50 mM NaOH (12 μL each at 100 μL/min).

Experiment [4] concerns the target T3, recombinant human GITR/Fc (rHGITR/Fc, …). Put plainly: SPR binning with rHGITR/Fc.
Experiment [5] deals with T1, human GITR, membrane bound (on …). Put plainly: cell-based or functional assay.
Experiment [6] deals with T4, mouse GITR (mouse, UniProt O35714 20-228).
T4 construct: whole, on cells; also called muGITR
T4 sequence (looked up): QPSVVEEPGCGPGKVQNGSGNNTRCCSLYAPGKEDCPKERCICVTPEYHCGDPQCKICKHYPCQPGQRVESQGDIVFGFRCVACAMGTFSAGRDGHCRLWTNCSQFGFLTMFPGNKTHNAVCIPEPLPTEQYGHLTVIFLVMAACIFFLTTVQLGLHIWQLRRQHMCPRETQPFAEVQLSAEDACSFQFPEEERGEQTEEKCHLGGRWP
Put plainly: stated in the Treg suppression assay with huGITR KI and wildtype mouse T cells. The text has this:
From the previous experiment it was not clear whether the increased Teff proliferation was due to the anti-GITR antibodies acting on Treg and/or Teff cells. To address this question, human GITR “knock-in” (huGITR KI) mice were used. In these mice, the gene encoding mouse GITR, Tnfrsf18, was replaced with the human TNFRSF18 gene, and human GITR is expressed similarly to muGITR in wildtype mice; human GITR is expressed on both Teff and Treg cells with higher levels on the latter.
Treg and Teff cells were sorted based on CD4 and CD25 expression from huGITR KI and WT mice.

Experiment [7] addresses T1, human GITR, membrane bound (on …). Put plainly: FACS on PHA-activated human CD4+ and CD8+ T cells, anti-HA detection. An excerpt: (§2) The samples were acquired on a FACS Canto Flow Cytometer (BD, San Jose) and analyzed with FlowJo software (Tree Star, Inc, Ashland, Oreg.).
For experiment [8] the target is unchanged. The experiment can be described thus: FACS; pre-bound GITR-L against 0.5 ug/mL 28F3-hIgG1 (competitor) on activated T cells; partial inhibition.
Excerpt: as §2
For orientation: Flow cytometry measures light scatter and fluorescence of single cells or particles in a stream.

B1: 3C3 (antibody, human IgG1, kappa, V domains shown)
VH: QVQLQQWGAGLLKPSETLSLTCAVYGGSFSGYYWTWIRQPPGKGLEWIGKINHSGNTNYNPSLKSRVTISVDTSKNQFSLKLSSVTAADTAVYYCARLGAFDAFDIWGQGTMVTVSS
VL: DIQMTQSPSSLSASVGDRVTITCRASQGISSWLAWYQQKPEKAPKSLIYAASSLQSGVPSRFSGSGSGTDFTLTISSLQPEDFATYYCQQYNSYPYTFGQGTKLEIKR
notes: Hybridoma-derived; also called GITR.3; 3C3-1
By EC50 is commonly meant the concentration that produces a half-maximal response. A low value points to greater potency. In turn, B1 came in with a 50% effective concentration (EC50) in experiment [1] of 0.0492 nM. In addition, the binding result in experiment [2] is “no binding”.

B2: 18E10 (antibody, human IgG2, kappa, V domains shown)
VH: QVQLVESGGGVVQPGRSLRLSCAASGFTFSSYGMHWVRQAPGKGLEWVAVIWYAGSNKYYADSVKGRFTISRDNSKNTLYLQMNSLRAEDTAVYYCARGGRIAVAFYYSMDVWGQGTTVTVSS
VL: DIQMTQSPSSLSASVGDRVTITCRASQGISSWLAWYQQKPEKAPKSLIYAASSLQSGVPSRFSGSGSGTDFTLTISSLQPEDFATYYCQQYNSYPYTFGQGTKLEIKR
notes: Hybridoma-derived human antibody
As usually defined, the Kd is a measure of binding affinity in units of concentration. As usually defined, the koff is the rate constant with which the complex falls apart. A word on the kon: it is the rate constant with which the complex forms. B2 had an EC50 in experiment [1] of 0.146 nM. Moreover, a half-maximal response in experiment [2] (EC50) required 0.913 nM. Further, in experiment [3], the Kd came to 13.3 nM, the koff is 0.00241 s⁻¹ and the kon stood at 182000 M⁻¹ s⁻¹.

B3: 2G6 (antibody, human IgG2, kappa, V domains shown)
VH: QVQLVESGGGVVQPGGSLRLSCAASGFILSDYGMHWVRQAPGKGLEWVTVIWYDGSNKFYVDSVKGRFTISRDNSKNTLYLQMNSLRVEDTAVYYCARGGRLATGHFYYVMDVWGQGTTVTVSS
VL: DIQMTQSPSSLSASVGDRVTITCRASQGISSWLAWYQQKPEKAPKSLIYAASSLQSGVPSRFSGSGSGTDFTLTISSLQPEDFATYYCQQYNSYPYTFGQGTKLEIKR
notes: as for B2
As to B3, in experiment [3], the Kd was 12 nM, the koff is 0.00147 s⁻¹ and the kon turned out to be 123000 M⁻¹ s⁻¹.

B4: 14E3 (antibody, V domains shown)
VH: QVQLQQWGAGLLKPSETLSLTCAVYGGSFSGYYWSWIRQPPGKGLEWIGEINHSGNTYYNPSLKSRVTISVDTSKNQLSLKLSSVTAADTAVYYCARFGSNDAFDIWGQGTMVTVSS
VL: DIQMTQSPSSLSASVGDRVTITCRASQGISSWLAWYQQKPEKAPKSLIYAASSLQSGVPSRFSGSGSGTDFTLTISSLQPEDFATYYCQQYNSYPPTFGQGTKVEIKR
notes: as for B2
Take B4: the binding result in experiment [4] is “binds”.

B5: 19D3 (antibody, human IgG2, kappa, V domains shown)
VH: QVQLVESGGGVVQPGRSLRLSCAASGFTFSSYGFHWVRQAPGKGLEWVAVIWYAGSNKFYADSVKGRFTISRDNSKNTLYLQMNSLRAEDTAVYYCARGGQLDYYYYYVMDVWGQGTTVTVSS
VL: DIQMTQSPSSLSASVGDRVTITCRASQGISSWLAWYQQKPEKAPKSLIYAASSLQSGVPSRFSGSGSGTDFTLTISSLQPEDFATYYCQQYNSYPYTFGQGTKLEIKR
notes: as for B2
In experiment [1], B5 yielded an EC50 of 0.363 nM. Further, in experiment [3], the dissociation constant Kd amounted to 16.3 nM, the off-rate (koff) amounted to 0.0045 s⁻¹ and the kon was 276000 M⁻¹ s⁻¹.

B6: 28F3 (antibody, human IgG2, kappa)
heavy: QVQLVESGGGVVQPGRSLRLSCAASGFTFSSYGMHWVRQAPGKGLEWVAVIWYEGSNKYYADSVKGRFTISRDNSKNTLYLQMNSLRAEDTAVYYCARGGSMVRGDYYYGMDVWGQGTTVTVSSASTKGPSVFPLAPCSRSTSESTAALGCLVKDYFPEPVTVSWNSGALTSGVHTFPAVLQSSGLYSLSSVVTVPSSNFGTQTYTCNVDHKPSNTKVDKTVERKCCVECPPCPAPPVAGPSVFLFPPKPKDTLMISRTPEVTCVVVDVSHEDPEVQFNWYVDGVEVHNAKTKPREEQFNSTFRVVSVLTVVHQDWLNGKEYKCKVSNKGLPAPIEKTISKTKGQPREPQVYTLPPSREEMTKNQVSLTCLVKGFYPSDIAVEWESNGQPENNYKTTPPMLDSDGSFFLYSKLTVDKSRWQQGNVFSCSVMHEALHNHYTQKSLSLSPGK
light: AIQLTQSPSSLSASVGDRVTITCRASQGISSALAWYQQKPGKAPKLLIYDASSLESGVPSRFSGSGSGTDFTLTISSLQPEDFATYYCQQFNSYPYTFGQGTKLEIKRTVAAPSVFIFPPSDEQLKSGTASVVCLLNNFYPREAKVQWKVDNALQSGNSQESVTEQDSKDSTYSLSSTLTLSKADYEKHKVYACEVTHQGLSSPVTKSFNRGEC
notes: also called 13H2; 28F3 (IgG2)
With B6, in experiment [5], the “NFKB signaling (phospho-p65) EC50, CD4+ T cells” value was determined as 12.8 nM; the “NFKB signaling (phospho-p65) EC50, CD8+ T cells” value is 9 nM; the “NFKB signaling (phospho-p65) Emax, CD4+ T cells” value is 69%; the “NFKB signaling (phospho-p65) Emax, CD8+ T cells” value stood at 85%. In experiment [1], this molecule displayed an EC50 of 0.192 nM. Besides, in experiment [2], a half-maximal effect (EC50) was put at 1.04 nM. Moreover, in experiment [3], the Kd was 14.8 nM, the koff is 0.00589 s⁻¹ and the kon was determined as 397000 M⁻¹ s⁻¹. In addition, the binding result in experiment [6] is “no binding”.

B7: 8A6 (antibody, human IgG2, kappa, V domains shown)
VH: QVQLVESGGGVVQPGRSLRLSCTASGFTFSSYGMQWVRQAPGKGLEWVAVIWYEGSNKYYADSVKGRFTISRENSKNTLYLQMNSLRAEDTAVYYCARGGLMVRGLFYYGMDVWGQGTTVTVSS
VL: AIQLTQSPSSLSASVGDRVTITCRASQGISSALAWYQQKPGKAPKFLIYDASSLESGVPSRFSGSGSGTDFTLTISSLQPEDFATYYCQQFNSYPYTFGQGTKLEIKR
notes: as for B2
Turning to B7, in experiment [4], the binding result is listed as “binds”.

B8: 6G10 (antibody, human IgG2, kappa, V domains shown)
VH: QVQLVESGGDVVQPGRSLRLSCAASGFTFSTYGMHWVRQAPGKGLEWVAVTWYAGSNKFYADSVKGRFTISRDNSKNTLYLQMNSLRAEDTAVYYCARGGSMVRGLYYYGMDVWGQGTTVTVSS
VL: AIQLTQSPSSLSASVGDRVTITCRASQGISSALAWYQQKPGKAPKLLIYDASSLESGVPSRFSGSGSGTDFTLTISSLQPEDFATYYCQQFNSYPYTFGQGTKLEIKR
notes: as for B2
On to B8, for which, in experiment [3], the Kd stood at 1.87 nM, the koff is 0.000715 s⁻¹ and the on-rate (kon) turned out to be 383000 M⁻¹ s⁻¹.

B9: GITR.6.G2.G1f (antibody, human IgG2)
heavy: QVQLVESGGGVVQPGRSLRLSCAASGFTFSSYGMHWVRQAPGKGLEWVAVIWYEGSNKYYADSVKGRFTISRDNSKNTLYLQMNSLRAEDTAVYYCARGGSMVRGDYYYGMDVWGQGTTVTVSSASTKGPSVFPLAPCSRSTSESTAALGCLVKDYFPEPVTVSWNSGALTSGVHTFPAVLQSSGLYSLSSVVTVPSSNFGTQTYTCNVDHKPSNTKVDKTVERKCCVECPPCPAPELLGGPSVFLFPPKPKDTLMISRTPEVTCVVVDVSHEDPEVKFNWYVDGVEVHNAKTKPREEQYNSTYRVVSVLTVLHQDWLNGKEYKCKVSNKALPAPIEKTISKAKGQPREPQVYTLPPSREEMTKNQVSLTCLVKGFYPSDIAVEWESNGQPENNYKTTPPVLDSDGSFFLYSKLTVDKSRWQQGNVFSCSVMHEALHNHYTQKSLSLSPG
VL: AIQLTQSPSSLSASVGDRVTITCRASQGISSALAWYQQKPGKAPKLLIYDASSLESGVPSRFSGSGSGTDFTLTISSLQPEDFATYYCQQFNSYPYTFGQGTKLEIK
In the case of B9, in experiment [5], the “NFKB signaling (phospho-p65) EC50, CD4+ T cells” value came out at 9 nM; the “NFKB signaling (phospho-p65) EC50, CD8+ T cells” value came to 3.77 nM; the “NFKB signaling (phospho-p65) Emax, CD4+ T cells” value was 100%; the “NFKB signaling (phospho-p65) Emax, CD8+ T cells” value worked out at 92%.

B10: recombinant human GITR ligand trimer (R&D Systems 6987-GL) (ligand)
chain: LQLETAKEPCMAKFGPLPSKWQMASSEPPCVNKVSDWKLEILQNGLYLIYGQVAPNANYNDVAPFEVRLYKNKDMIQTLTNKSKIQNVGGTYELHVGDTIDLIFNSEHQVLKNNTYWGIILLANPQFIS
notes: Bought soluble trimer, detected through an HA tag; also called rhGITR-L; hGITR-L trimer
For orientation: IC50 means the midpoint of a concentration-inhibition curve. Lower therefore signals inhibition by little substance. For B10, in experiment [7], the EC50 was found to be 16 ng/mL. This molecule came in with an IC50 in experiment [8] of 2.4 ng/mL.
